From patent US20180118803A1 (Memorial Sloan Kettering, published 2018)

Key:
[1] = target: T1, GPRC5D peptides containing sequence 230QFQRQPQWDDPVVC243 (ECL3) (human); experiment: Pepscan ELISA, set 1 (linear) compared with set 4 (loop), high stringency, 3 ug/ml
T1 construct: This is a stretch deduced from array peptides that contain it
T1 peptide: QFQRQPQWDDPVVC

[2] = target: T2, GPRC5D peptide stretch 15LCDAEGPWG23 (N-term) (human); experiment: Pepscan ELISA on peptide arrays, high stringency, 3 ug/ml
T2 construct: This is a stretch deduced from array peptides that contain it
T2 peptide: LCDAEGPWG
Description: (§1) ELISA Screening—The binding of antibody to each of the synthesized peptides was tested in a PEPSCAN-based ELISA. The peptide arrays were incubated with primary antibody solution (overnight at 4° C.). After washing, the peptide arrays were incubated with a 1/1000 dilution of an appropriate antibody peroxidase conjugate (SBA) for one hour at 25° C. After washing, the peroxidase substrate 2,2′-azino-di-3-ethylbenzthiazoline sulfonate (ABTS) and 2 μl/ml of 3 percent H₂O₂ were added. After one hour, the color development was measured. The color development was quantified with a charge coupled device (CCD)—camera and an image processing system.

[3] = target: T3, GPRC5D peptide stretch 16CDAEGPWGII25 (N-term) (human); experiment: Pepscan ELISA on peptide arrays, moderate stringency, 1 ug/ml
T3 construct: This is a stretch deduced from array peptides that contain it
T3 peptide: CDAEGPWGII
Description: as §1

[4] = target: T4, GPRC5D peptide stretch 229PQFQRQPQW237 (ECL3) (human); experiment: as above
T4 construct: This is a stretch deduced from array peptides that contain it
T4 peptide: PQFQRQPQW
Description: as §1

[5] = target: T5, GPRC5D peptide stretch 5CIESTGDYFLLCD17 (N-term) (human); experiment: Pepscan ELISA on peptide arrays, high stringency, 1 ug/ml
T5 construct: This is a stretch deduced from array peptides that contain it
T5 peptide: CIESTGDYFLLCD
Description: as §1

B1: ET150-8 mIgG1 (antibody, V domains shown)
VH: QVQLVESGGGLVHPGGSLRLSCAASGFTFRSHSMNWVRQAPGKGLEWVSSISSDSTYTYYADSVKGRFTISRDNAKNSLYLQMNSLRAEDTAVYYCARSGGQWKYYDYWGQGTLVTVSS
VL: SSELTQDPAVSVALGQTVRITCQGDSLRSYYASWYQQKPGQAPVLVIYGKNNRPSGIPDRFSGSSSGNTASLTITGAQAEDEADYYCNSRDSSGNPPVVFGGGTKLTVLG
notes: also called ET150-158
- binding result [1]: binds
- binding result [2]: binds

B2: ET150-2 mIgG1 (antibody, V domains shown)
VH: QMQLVQSGAEVKKPGASVKVSCKASGYTFNRYAITWVRQAPGQGLEWMGWISAYNGNSHYAQKLQGRVTMTTDTSTGTAYMELRRLRSDDTAVYYCARMAYDSWGQGTLVTVSS
VL: QSVLTQPASVSGSPGQSLTISCTGTSNDVGAYKYVSWYQQYPGKAPKLILYDVFKRPSGVSNRFSGSKSDNTASLTISGLQAEDEADYYCFSLTSSNTYVFGTGTKVTVLG
notes: also called ET150-152
- binding result [3]: binds
- binding result [4]: binds

B3: ET150-5 mIgG1 (antibody, V domains shown)
VH: EVQLVESGGGLVKPGGSLRLSCAASGFTFSDYYMSWIRQAPGKGLEWVSYISSSGSTIYYADSVKGRFTISRDNAKNSLYLQMNSLRAEDTAVYYCARGYGKAYDQWGQGTLVTVSS
VL: QSVLTQPPSASGTPGQRVTISCSGSRSNVGGNYVFWYQQVPGATPKLLIYRSNQRPSGVPDRFAGSKSGSSASLAISGLRSEDEADYYCATWDDSLSGFVFGTGTKVTVLG
notes: also called ET150-155
- binding result [5]: binds
